The target in one data set is T1, Pf-Int-C192 (Plasmodium falciparum 3D7, UniProt C0H5A8 192-490).
T1 sequence: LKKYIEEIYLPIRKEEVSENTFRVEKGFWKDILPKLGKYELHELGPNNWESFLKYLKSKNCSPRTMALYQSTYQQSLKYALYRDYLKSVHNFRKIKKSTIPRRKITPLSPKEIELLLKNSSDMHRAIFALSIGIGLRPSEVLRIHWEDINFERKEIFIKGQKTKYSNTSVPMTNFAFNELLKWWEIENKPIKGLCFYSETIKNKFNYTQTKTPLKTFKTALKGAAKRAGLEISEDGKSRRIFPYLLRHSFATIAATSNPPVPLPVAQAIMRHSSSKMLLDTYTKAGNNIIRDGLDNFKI
The data set can be described thus: EMSA; 10 ug/ml poly(dI-dC); max shift at ~15-fold higher protein/DNA ratio than without; EMSA: 50 mM Tris pH 8, 150 mM NaCl, 0.1 mM EDTA, 5 mM DTT, 50 ug/ml BSA, 2% glycerol, 0.5% Tween 20, 10 ug/ml poly(dI-dC) unless omitted, 10 nM DNA, 20 min at 20 C; 5% gel in 0.5x TBE at 18 C. The note with it: protein: recombinant; label: 5'-DY682 on strand 1; blunt. In general terms: In EMSA bound probe runs differently from free probe, usually more slowly.

A further data set addresses T2, Pf-Int-C162 (Plasmodium falciparum 3D7, UniProt C0H5A8 162-490).
T2 sequence: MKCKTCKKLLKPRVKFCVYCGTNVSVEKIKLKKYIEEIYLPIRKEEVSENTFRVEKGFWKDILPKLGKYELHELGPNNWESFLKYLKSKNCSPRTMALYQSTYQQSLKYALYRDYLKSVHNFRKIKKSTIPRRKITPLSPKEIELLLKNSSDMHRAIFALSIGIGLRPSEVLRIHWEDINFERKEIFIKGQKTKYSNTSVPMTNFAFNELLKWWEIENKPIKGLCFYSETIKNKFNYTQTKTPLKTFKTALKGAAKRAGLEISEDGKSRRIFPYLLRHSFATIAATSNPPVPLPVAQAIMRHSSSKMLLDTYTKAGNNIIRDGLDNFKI
The data set can be described thus: EMSA; 10 ug/ml poly(dI-dC); EMSA: 50 mM Tris pH 8, 150 mM NaCl, 0.1 mM EDTA, 5 mM DTT, 50 ug/ml BSA, 2% glycerol, 0.5% Tween 20, 10 ug/ml poly(dI-dC) unless omitted, 10 nM DNA, 20 min at 20 C; 5% gel in 0.5x TBE at 18 C. The note with it: protein: recombinant; tags: N- or C-terminal His6 versions; label: 5'-DY682 on strand 1; blunt.

The target in a further data set is T3, His6-Pf-Int-C192 (Plasmodium falciparum 3D7, UniProt C0H5A8 192-490).
T3 sequence: T1 sequence
The data set can be described thus: EMSA supershift; 0.04 or 0.2 uM protein; anti-Pf-Int disrupts, anti-His5 supershifts; EMSA: 50 mM Tris pH 8, 150 mM NaCl, 0.1 mM EDTA, 5 mM DTT, 50 ug/ml BSA, 2% glycerol, 0.5% Tween 20, 10 ug/ml poly(dI-dC) unless omitted, 10 nM DNA, 20 min at 20 C; 5% gel in 0.5x TBE at 18 C. Particulars: protein: recombinant; tags: N-terminal His6; label: 5'-DY682 on strand 1; blunt.

B1: Selex8 (dsDNA)
DNA 1: CAAACACACTGTGCGCGCGTCG
DNA 2: CGACGCGCGCACAGTGTGTTTG
In the case of B1, the binding result with Pf-Int-C192 was “binds”; with Pf-Int-C162, “no binding”; in the data set with His6-Pf-Int-C192, “binds”.

Values taken from publication PMC3466309, “Initial Characterization of the Pf-Int Recombinase from the Malaria Parasite Plasmodium falciparum”.
